Data taken from the RNAGym collection of RNA variant scans (doi:10.1073/pnas.2313332121).

B1: TPR t1 (parent)
chain: GACCAAUCUGCCCUCAGAGCUCGAGAACAUCUUCGGAUGCAGAGGAGGCAGGCUUCGGUGGCGCGAUAGCGCCAACGUCCUCAACCUCCAAUGCAUCCCACCACAUGAUGAUGCCUGAAGAGCCUUGGUUUUUUG

Variants of: B1
Experiment: polymerase ribozyme fitness, log enrichment relative to wild type (log ratio); higher = more active; in vitro selection for triplet polymerase activity
In short: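 Mutant libraries were PCR-built and transcribed for each subunit of a heterodimeric triplet polymerase ribozyme and selected for one round in triplicate at −7 °C, frozen, before gel excision of extended constructs and streptavidin-bead capture. Input and output libraries were Illumina-sequenced, keeping genotypes with ≥10 input reads and ≥1 read per output. Fitness is a logarithmic ratio of genotype to wild-type enrichment, in base 2, using inverse-variance-weighted replicate averages.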

Row | Variant | polymerase ribozyme fitness (log ratio)
1 | G61A U116G G128C | -4.66
2 | G61C U78G U112A G128A | -6.61
3 | G60A C114U | -1.78
4 | G60A C114A | -1.45
5 | G60U A90G C123A U125A G135A | 1.61
6 | G61A U116A | -2.68
7 | G60C G120U | 0.528
8 | U59G C89A A121G | 0.508
9 | G61A G110A | -0.516
10 | G61A C101U | -1.21
11 | G60U G117U | -1.65
12 | G61U U81C C86G G113U A119U | -6.31
13 | G61C C94U U130A U131G | -3.54
14 | G60U C86U A103U | -6.46
15 | G60A G110C | -3.08
16 | C62G C124U | 0.784
17 | C62G C124A | -0.74
18 | C62G C79U | -1.14
19 | G60A C64U | -2.43
20 | C62A U133A | -1.52
21 | U59G U92G G110A U133C | -4.4
22 | G61U C89A | -1.5
23 | G60A A100C C104U C123A | -0.726
24 | C62A C94U | -1.76

Row | Variant | polymerase ribozyme fitness (log ratio)
25 | G60U A105C | -1.6
26 | U59G U92A | -3.4
27 | G61A C70U G120U C123G | -0.0638
28 | G61A C62U | -1.86
29 | G61A A66G C104A | -3.27
30 | C62A A95U A121C | -0.641
31 | G61A C64A | -6.82
32 | G60A G113C G135U | -5.16
33 | C62A G77U C114G | -4.81
34 | G60A C89A U116G | -4.84
35 | G61U G63A U96A A103G A111U G113A U132C | -6.45
36 | G61A G93A C114G | -2.13
37 | G60U U132A | -0.036
38 | G61U C82A G107A | -5.28
39 | G61A G127C | -0.956
40 | U59G G71A | -3.25
41 | C62A C79U C88G G135U | -2.35
42 | G61U A68U U87A C114G | -6.91
43 | G61C G107A U112A G117U | -6.86
44 | G60U A83U A108C C114G G117C | -5.39
45 | G61C C123G | 0.189
46 | G61U C97A | -3.26
47 | G61C A83G | -3.02
48 | G61A G128U | -2.15

Row | Variant | polymerase ribozyme fitness (log ratio)
49 | C62A A66U | -3.17
50 | G61U C98A | -3.78
51 | G61U C98U | -1.55
52 | G60A C102A G120C U132C | -1.03
53 | C62A U87G U106G | -2.77
54 | G60U C104U | 0.494
55 | G61C C94G | -2.92
56 | G61C C94U | -1.25
57 | G61A A90G G128U | -1.55
58 | G61U U96A | -0.797
59 | G61U U81A | -0.596
60 | G60U A91G | -1.56
61 | G60A U125A | -0.369
62 | G61A U130C | 0.204
63 | C62A C72G U112G | -1.95
64 | G60U C80A U106A | -3.14
65 | C62G A119U G128C | -4.08
66 | G60C C80U | -4.1
67 | C62G U78C | -1.87
68 | C62A C101A G113A | -2.77
69 | G61C C97U | -2.51
70 | G60U U87A U126C | -0.499
71 | G61A C88A C114G U116C G122A | -5.26
72 | G60U A121U | 1.63

Row | Variant | polymerase ribozyme fitness (log ratio)
73 | G61U U78C C89G | -1.23
74 | G61U U106A U116C | -0.163
75 | G60C C114A C115G G122C U133C | -4.6
76 | U59G C101U U131G U133A | -0.675
77 | G60A A84C | -0.0134
78 | G61U A105U | -1.36
79 | G61U A105C | -1.99
80 | G61A U112A C124U | 1.83
81 | G60A C101G | -1.57
82 | G60A G117C A121U | -2.7
83 | C62A C82U | -0.465
84 | C62A A105G | -4.17
85 | G61C C89G G113U U133C | -4.45
86 | G61A C94U U112A | 1.31
87 | C62G G120U | -1.64
88 | G60A U116C A118C | -3.05
89 | G60C C79A C88G | -2.51
90 | G60U C89A A118G | -1.39
91 | G60U C97U | -1.7
92 | G60U C97A | -5.24
93 | C62A C99U | -3.69
94 | G61A C89A | -1.25
95 | G61U A103C | -5.47
96 | G60U A119G | -0.151

Row | Variant | polymerase ribozyme fitness (log ratio)
97 | G61A G107U | -4.9
98 | C62G C82U G117C | -5.97
99 | G60C U92G | -3.59
100 | G61U A100C U106A U112A | 1.26
101 | G60A C79U U130A | 0.0156
102 | G60A A83C | -0.195
103 | C62G C102A C115A | -2.67
104 | G60C G77A | -1.47
105 | G60C U96C C104U G117A | -2.83
106 | C62A G110C G127U | -5.37
107 | G60U C80G | -4.54
108 | G60A C97G G117C | -6.67
109 | G60A A103C A111C | -4.91
110 | G61A C89G C101G A121G | -0.932
111 | G61C A90U G93A | -4.85
112 | G60C U81A A83C | -3.92
113 | G60A A105U | -1.64
114 | G61A C72U G77U | -0.134
115 | G61A U112G G120U G122C | -1.64
116 | G61C U109A | -4.34
117 | G60A C82U | -0.523
118 | C62A U78C G117A | -3.04
119 | G61U U81G U129A | -4.47
120 | G60A C85A | -1.07

Row | Variant | polymerase ribozyme fitness (log ratio)
121 | C62A G107A | -5.05
122 | G61U A95U | -0.221
123 | C62A A95U | -1.55
124 | G60A G93A C99U | -5.15
125 | U59G C97U | -1.6
126 | G61U C86A A103C | -5.4
127 | G61C C80G G117C | -7.35
128 | G60U C80U C123A | -1.11
129 | G61A U109C | -2.02
130 | G61A U109A | -5.19
131 | G61C G63C | -3.6
132 | G60A C123G | 1.63
133 | G61A U78G A84U C86A | -1.71
134 | G60A C89U | -0.18
135 | C62A C85G | -2.62
136 | C62G A105G | -4.99
137 | G61U U87A A121U | 1.5
138 | G60U A91U A121U | 0.38
139 | G60C C123A | -0.064
140 | G60C A111U G128U U133A | -6.08
141 | G61U A119G | 1.3
142 | U59G G122A | -1.35
143 | G61C C124G | -0.476
144 | G61U A90U | -2.11

Row | Variant | polymerase ribozyme fitness (log ratio)
145 | G61A U112G | 0.603
146 | G61A U112A | 1.31
147 | G60A C82A U106A G120A | 0.0586
148 | C62A C101U | -2.3
149 | C62A C101A | -2.84
150 | C62A C101A C114A | -3.81
151 | C62G G93C | -3.7
152 | G60C U130A U133A | -1.59
153 | G61A U81G A105U U112G | -5.6
154 | G61C C89U G113C G120C | -4.9
155 | G60A A100U U129A | -2
156 | G61U A83G U112C | 1.59
157 | G61U C97G G113U | -5.53
158 | C62A C101A A111C | -1.51
159 | G61U C86A A119C G120A | -2.79
160 | G61A G113U | -2.69
161 | G60U U126C | -0.44
162 | G60A C124G | 1.59
163 | G60C U130G | -1.28
164 | G61C G107C C114A A119U | -6.57
165 | G61C A74C C85U | -5.35
166 | G61U G93U U130A | -1.63
167 | G61C C98U C123G U133A G135U | -1.22
